Reference: patent publication US20250123280A1, “LABEL-FREE DETECTION OF PROTEASE ACTIVITY” (OREGON HEALTH & SCIENCE UNIVERSITY, priority 2021, published 2025)
One block for each molecule: values may come before it. Ends that are not written are not given here. Peptide text beside a SMILES is read from it. * marks the point of attachment. Fmoc = O=C(OCC1c2ccccc2-c2ccccc21)*

What was measured:
[1] = ThT fluorescence of self-assembled peptide 2 in assay buffer; conditions: peptide 2 0.58 mg/mL in assay buffer, ThT 90 μM
Description: β-sheet rich nanoplatelet formation by self-assembly of peptide 2. […] Nano Lett. 2017, 17 (9), 5546-5554). […] ThT (90 μM) addition to this solution yielded a bright fluorescence with an emission maximum of about 490 nm (see FIG. 2).

[2] = Solubility in aqueous solutions; type: physicochemical
cathepsin B = target: T1, cathepsin B (Homo sapiens, UniProt P07858); experiment: Cathepsin B assay with peptide 3 and ThT; type: biochemical; conditions: after treatment with cathepsin B (1000 ng/mL vs 0 ng/mL)
T1 construct: purchased Bio-Techne
Description: Peptide 3 was prepared as a 2.0 mg/mL solution in 1× phosphate buffered saline, pH 7.4 and 5% DMSO. In a typical assay experiment, 50 μL of the peptide 3 solution was mixed 50 μL of 50 mM MES buffer, pH 5 with cathepsin B at a concentration between about 0 and about 1000 ng/mL in a 96-well microplate and the plate was incubated at 37° C. for 2 hours. Then, 10 μL of 0.1 μm-filtered 1 mM aqueous ThT solution was added to each well and mixed for a final concentration of 90 μM ThT. After 15-30 min incubation at room temperature, the ThT fluorescence was measured at room temperature using a Tecan Spark 20M microplate reader.

[3] = target: the molecule itself; experiment: self-assembly of peptide 2 in assay buffer; centrifugation, TEM, AFM
Description: Transmission electron microscopy (TEM) and atomic force microscopy (AFM) imaging. […] After incubating at 37° C. for 2.0 hours, the formed aggregates were collected by centrifugation and resuspended in ultrapure water. […] TEM images were taken using a Tecnai microscope (FEI). To prepare TEM samples, 5 μL of solutions were placed on carbon film 200 copper mesh TEM grids. Samples were incubated on TEM grids for about 5 minutes and bloated and air dried. Uranyl acetate was prepared in distilled water at 2% w/v and filtered with a 0.1 μm syringe filter before each use. A 20 μl droplet of this solution was placed on Parafilm and the TEM grid was floated on it for 7 minutes. Excess uranyl acetate was blotted using Whatman paper, and the sample is left to dry at room temperature.
The morphology of these structures was investigated using transmission electron microscopy (TEM) and atomic force microscopy (AFM). […] AFM experiments were performed to further analyze the morphology of self-assembled nano-platelets.

[4] = target: the molecule itself; experiment: circular dichroism of peptide 1 alone (self-assembly)
[5] = target: T2, Peptide 1 (Fmoc-Phe-Lys-Phe-Glu-Ala-Ala-Asn-Gly-Glu-Glu-Gly-Ser-Gly-Glu-Glu)
T2 chain: FKFEAANGEEGSGEE

solubility in aqueous solutions [2]: not soluble in aqueous solutions
Molecule: C[C@H](NC(=O)[C@H](C)NC(=O)[C@H](CCC(=O)O)NC(=O)[C@H](Cc1ccccc1)NC(=O)[C@H](CCCCN)NC(=O)[C@H](Cc1ccccc1)NC(=O)OCC1c2ccccc2-c2ccccc21)C(=O)N[C@@H](CC(N)=O)C(=O)O [peptide 2, Fmoc-FKFEAAN] (Fmoc-FKFEAAN-OH)
enhancement in the ThT fluorescence intensity [1]: 45 fold

increase in ThT fluorescence (cathepsin B): ≤ 72 fold
Molecule: Fmoc-FKFELAGGAGEEGSGEEE [peptide 3, cathepsin B substrate motif LAGGAG in place of the legumain substrate]

B1: Peptide 2 (Fmoc-FKFEAAN) (peptide)
peptide: Fmoc-FKFEAAN
notes: Synthetic peptide bought from GenScript (1048.2 g/mol); It is also the product of hydrolysis of peptide 1 by legumain; It self-assembles into many-copy nanoplatelets; also called protein 2; self-assembly precursor
binding result [3]: binds

Molecule: Fmoc-FKFEAANGEEGSGEE (also called protein 1; the probe) [Peptide 1 (Fmoc-Phe-Lys-Phe-Glu-Ala-Ala-Asn-Gly-Glu-Glu-Gly-Ser-Gly-Glu-Glu)]
binding result [4]: no binding (tested: 0.333 mg/mL)

B2: Recombinant mouse legumain (protein)
chain: VPVGVDDPEDGGKHWVVIVAGSNGWYNYRHQADACHAYQIIHRNGIPDEQIIVMMYDDIANSEENPTPGVVINRPNGTDVYKGVLKDYTGEDVTPENFLAVLRGDAEAVKGKGSGKVLKSGPRDHVFIYFTDHGATGILVFPNDDLHVKDLNKTIRYMYEHKMYQKMVFYIEACESGSMMNHLPDDINVYATTAANPKESSYACYYDEERGTYLGDWYSVNWMEDSDVEDLTKETLHKQYHLVKSHTNTSHVMQYGNKSISTMKVMQFQGMKHRASSPISLPPVTHLDLTPSPDVPLTILKRKLLRTNDVKESQNLIGQIQQFLDARHVIEKSVHKIVSLLAGFGETAERHLSERTMLTAHDCYQEAVTHFRTHCFNWHSVTYEHALRYLYVLANLCEAPYPIDRIEMAMDKVCLSHY
LC-MS, fraction of peptide 1 cleaved [5]: almost 30% of the peptide was cleaved by legumain
ON/OFF ratio of the assay in albumin depleted 20% plasma [5]: improve the ON/OFF ratio of the assay to about 10
ThT emission enhancement at 1 mg/mL peptide 1 (500 ng/mL legumain) [5]: a 28-fold enhancement in its emission was obtained at 1 mg/mL peptide concentration
ThT emission intensity enhancement at 1000 ng/mL legumain (1.0 mg/mL peptide 1, 2 h) [5]: about 32 fold at 1000 ng/mL legumain concentration
ThT emission intensity increase at peptide 1 below 0.25 mg/mL (500 ng/mL legumain) [5]: minimal (1.3-1.4 fold)
ThT fluorescence enhancement at 10.0 ng/mL legumain [5]: a slight (about 1.3 fold) fluorescence enhancement was obtained at the legumain concentration of 10.0 ng/mL
ThT fluorescence enhancement at 25.0 ng/mL legumain [5]: an easily detectable (about 3-fold) fluorescence enhancement was detected at 25.0 ng/mL
ThT fluorescence enhancement in 10% plasma (1000 ng/mL legumain, 25 µM ThT) [5]: a fluorescence enhancement of about 20 fold was obtained in 10% plasma at the legumain concentration of 1000 ng/mL
ThT fluorescence enhancement in 20% human plasma (1000 ng/mL legumain, 90 µM ThT) [5]: a detectable fluorescence enhancement (about 2.5 fold)
ThT fluorescence intensity at 24 hours relative to 2 hours (1000 ng/mL legumain) [5]: at 24 hours, the fluorescence intensity was about 2.5 higher compared with the intensity at two hours
limit of detection (LOD) of legumain in the peptide 1 / ThT assay [5]: about 12 ng/mL (0.21 nM)
limit of quantification (LOQ) of legumain in the peptide 1 / ThT assay [5]: about 25 ng/mL (0.45 nM)
minimum detectable legumain concentration in 10% plasma [5]: a minimum detectable concentration between 50 ng/mL to 200 ng/mL
